Source: US8802160B2 (Amorphical Ltd., priority 2007, dated 2014)
Entries after “also recorded” stand apart in the source; their conditions may differ.

Assays:
[1] = Stability of ACC at room temperature by Raman spectroscopy; type: physicochemical
Description: The precipitated calcium carbonate was checked over long periods for the amorphous/crystalline state.
(§1) 100 μl of 1M CaCl2 was added to 10 ml double distilled water (final concentration: 10 mM). 80 μl from the protein extraction solution (1.2 μg/μl) were added (final concentration ˜10 μg/ml). 100 μl of 1M Na2CO3 (final concentration: 10 mM) was added following an intensive shaking. The vial was centrifuged for 5 min at 4000 rpm, the precipitate was smeared over a glass slide and instantly dried with air flow. […] The observations were confirmed by Raman spectroscopy.

[2] = In vitro calcium carbonate precipitation assay testing the stabilization of ACC; type: physicochemical; conditions: for effect on calcium carbonate precipitation (polymorph obtained): CaCl2 + Na2CO3 solution, SEM, Raman
Description: Electron microscope images of the precipitates distinctly indicated different polymorph composition of calcium carbonate for the precipitation in the presence/absence of GAP65-enriched fractions (FIG. 7).
FIG. 7 presents precipitation results of calcium carbonate in the presence of GAP65 and in the presence of other protein (trypsin). SEM images in FIG. 7A indicate the distinct polymorph of calcium carbonate in each treatment.
as §1
The peak at 560 is attributed to the glass substrate. […] Specific expression of GAP21, GAP22 and GAP65 in several target tissues was checked by means of RT-PCR, similarly as described in Example 2. GAP21 and GAP65 expressions were found in both cuticle related tissues. GAP22 expression was found only in the gastrolith epithelial disc. The cDNA sequences of the corresponding genes were obtained and their deduced proteins were found (FIGS. 13-15). […] GAP12, GAP21 and GAP22, on the other hand, show no significant similarity to any known domain.

B1: GAP65: approximately 65 kDa negatively charged glycoprotein from Cherax quadricarinatus gastrolith, SEQ ID NO:1; used as GAP65 enriched fraction (protein, listed as Cherax quadricarinatus)
chain: MIRRVTTPLLALLLAGWVVAQTTDMDPEQYCARRDDEYFRKDFGDPAEFASDYRANCGVYYRCVPAPAGKRSISASQCQSELFFDVQQQICERKSKVTNCEQIDKEHPPQPFWPLREGEESQCKSGEIMCGSGECLPQHRFCDENSDCADGSDENICTPDKDPNRADVCEPRTCLWSQGCFCSVDGTRIPGDLTVDQTPQMITITFTGAINERNFRIFQDVFKDTVKHKGNDCTPKGTFFISHGFSNYSAIQELNRVGHEIAVSSITNNDNPDYWSKLSALDYEAEMDGARLIIEKFANITANEVLGIRVPKQRVGGNRQFRMMVDWGFLYDSSISAPMGRLPLWPYTLMHRMPHKCLGNDQNCPSQNFTVWEMVINEMDRRDDPQFDERLTGCHFVDQCANIQSPEQFRAFLDNNLARHYRTNRAPLGLHFTSGYFETRRDFLREFVKWVRETALSGDYFFVTMQQVINWMEAPTELTAINNFQEWKGKCEVKGQPYCSLPNPCPKKVPRIFPNEEEMFLYTCMECPNTYPWLGDPHGNGFLDIPDF
modifications: glycosylated
notes: used as GAP65 enriched fraction
time ACC precipitated with GAP65 remained stable [1]: at least 1 months | ACC share of the total CaCO3 precipitated ([2]; 10 mM CaCl2, 10 mM Na2CO3, ~10 μg/ml protein, estimated): at least 50% | effect on calcium carbonate precipitation (polymorph obtained) [2]: amorphous CaCO3; also recorded: deposition of an amorphous form (ACC)

B2: trypsin (protein, UniProt P00760 24-246, looked up)
Serine protease 1: IVGGYTCGANTVPYQVSLNSGYHFCGGSLINSQWVVSAAHCYKSGIQVRLGEDNINVVEGNEQFISASKSIVHPSYNSNTLNNDIMLIKLKSAASLNSRVASISLPTSCASAGTQCLISGWGNTKSSGTSYPDVLKCLKAPILSDSSCKSAYPGQITSNMFCAGYLEGGKDSCQGDSGGPVVCSGKLQGIVSWGSGCAQKNKPGVYTKVCNYVSWIKQTIASN
notes: other (inert) protein used as control in the precipitation assay
effect on calcium carbonate precipitation (polymorph obtained) [2]: rapid crystallization
